# Measured values published in a protein production outcome set (Wang et al. 2014).
# Assay: label from the status in PepcDB records
row,Sequence,protein production
1,MHSPHDPYVRVRDAREHNLKGVDVDVPRDVLAVFTGVSGSGKSSLAFGTVYAEAQRRYFESVAPYARRLIHQIGAPKVGGITGLPPAVSLQQRRATPTSRSSVGTVTNLSNSLRMLFSRAGTYPPGAERLDSDAFSPNTAAGACPECHGLGRVHRTTEELLVPDPSLSIRDGAIAAWPGAWQGKNLRDVLDALGYDVDRPWRELPAEAREWILFTDEQPVVTVHPVREAGRIQRPYQGTYMSARRYVLKTFADSKSATLRAKAERFLNSAPCPVCGGGRLRAEALAVTVGGRTVAELAALPLAELPRLLPTEGEAAKVLAEDLISRIAPVVELGLGYLSLDRPTPTLSAGELQRLRLATQLRSGLFGVVYVLDEPSAGLHPADTEALLTVLERLKAAGNSVFVVEHHLGVMRGADWIVDVGPLAGEHGGRVLYSGPVDGLARVAESATARHLFDRSPAPVREVRTPRGAVTIGPVTRHNLRGVTVRVPLGVLTAVTGVSGSGKSTLVGEITEDLPGVDRLVSVDQRPIGRTPRSNLATYTGLFDVVRKVFAATDRARERGFGVGRFSFNVPGGRCETCQGEGFVSVELLFLPSTYAPCPDCGGARYNPETLEVAYRGRNIAEVLDLTVEGAAQFFTDTPAVARSLAALLDVGLGYLRLGQPATELSGGEAQRIKLASELQRGRRGHTLYLLDEPTTGLHPADVEVLMRQLHGLVDAGHTVVVVEHDMSVVAGADHVIDLGPGGGDAGGRIVAEGTPARVAGAAGSATAPYLARALDGGERR,failed
2,MHSTLLRTALLTAALGSFSHTATAEGVMVHLFQWKFNDIANECETVLGPKGFGGVQITPPAEHKQGSQVWWTVYQPVSFKNFNSFGGSEAELRSMIARCNAAGVKVYADAVFNQLASGSGTATGGGSYNAGQYQYPQFGYNDFHHSGDITNYGDSNNVWNGALYGMPDLNTGSPYVQDQIATYMKTLLGWGVAGFRIDAAKHMAPTDVKAILDKAGSPKAYLEVIGAGGESPDIQPGRYTYIDTVTDFKYGTDLAANFNGQIKNLKTLGESWGLLPSAKAFVFVVNHDRERGHGGGGMLTFMSGARYDLANTFMIAWPYGWKQVMSGYRFENMSTYETDKGAPGSTPCTDSQWNCEQRRPTIMNMALFHNRTEGQPVSNWWDNGNNQIAFGRGDKGFVAINNESGSLVASLQTALPAGEYCNLLGGNDYCSGGYVTVDGSGKASLNVPGMKAAAIIAGCTKASPCGGSALPGTKFSSMNLRGTHNAWGNTPMTVDANRVWSATLTLTGNGDATGAQRFKFDVFGNWAENYGDNEGDGIADKGSSKDILVSGAGSYRITLNESDLRYTVTPLTSNQAPVAALSPKTLSVKAGESVVFDASASHDDGGVVSYSWSSGGTAATETVRFDTPGTYTVTVTVTDAEGLTASASATVTVTDDNGTYTSVLPTLNFRGTPNAWGSLAMTLVADNQWEALVTFNGQANQRFKFDVKGDWSKNYGDTNKDGVAELAGSDILTSVTGQYRVRFNDQTLQYSLTPVSVGYAKNFASLNIRGTTNNWGSTPMSLVGDHLWQASVTFTGSGDGNGGQRFKFDVKGDWTQNYGDTNRDGVAEQAGADITTALVGVYVVRFNDQTLAYSLNAQ,failed
3,MHTALINHIRKFIFLTDEDAGTLSAFFQLKKVRKKETLLKTGEICRINYFVVKGCLRLFFIDEKGIEQTTQFAIENWWLSDYMAFQKQQPADFYIQSVENCELLSITYTEQENLFERIPALERYFRLVYQKSFAAAQLRSKFQHMYSKEEQYHNFSSRFPEFIQRVPQYLLASYLGFTPEYLSEIRKKYIS,not failed
4,MHTARFPSSATPSIFFRYFMALNEQDVARIARLALIELPPDQRGRAQAELNGILHLIERLQAVDTQGVEPLAHPLSAHEDITLRLREDAVSEQATEARRAELLANAPESADGLFLVPKVIE,failed
5,MHTLEQLRAGALTGIQALKLSENLTEVPAEVFQLADTLEILDLSGNRLHSLPQEMACLTRLRILFLSDNDFTIFPEVLKELKQLDMLGIKANNIQVIAEDAIPVSLRWLILTDNCIEALPVSIGRCTKLQKVMLAGNQLSGLPDELAACRNIELLRISANNMHTFPEVVKQLPRLAWLAYSSNPFQVNRSSFNALPVIAWENVALMEQLGAGASGIIYKARLNTGKSPEDVAVKVFKGAVTSDGLPEDEMTACMQAGRNSHLVSVLGVIGGHPEGMHGLVMELIPAEYKNLGRPPSFVTCTRDTFAAGTRFTAQQMLLILKGVAEAAKQLHDNGIMHGDLYAHNTLINEKYHSLFGDFGAATLYDKNNRDEAFFLERLDVRAFGCLADDLLQYSVCTKEDEWCLETLKRLSAGCMNEEPDKRPAFNTIVYELQLLQNTHLEHHHHHH,not failed
6,MHVDIELPLGRATALQRLRAQGFCVLTPAALETLTGMPLDAFDMMLPYWEELAPDLHLKDGGHYRYRRHGCFMQTLQPGQLETVQHRAHWQPTTYNALHGGMERWFEPLSNEMIHLPSWSALLVALGELFAKLRAPQGGRWYIEAHPFRIDTEGGVGRPTPEGAHRDGVDFVAVVFIGRQGVRGGETRVFDAAGPQGVRFTLEQPWTVLLLDDQQVIHESTPLLPLDPADPAVPAHRDTLVLTYRSGGFQAPA,not failed
7,MHVEQTRINMQSQGQSHQLPSAAHILLDQNPNSTGSNLVVKQNDIQSLSSVGLLELAHREYQAVDYESAEKHCMQLWRQDSTNTGVLLLLSSIHFQCRRLDKSAQFSTLAIKQNPVLAEAYSNLGNVFKERGQLQEALDNYRRAVRLKPDFIDGYINLAAALVAARDMESAVQAYITALQYNPDLYCVRSDLGNLLKALGRLEEAKACYLKAIETCPGFAVAWSNLGCVFNAQGEIWLAIHHFEKAVTLDPNFLDAYINLGNVLKEARIFDRAVAAYLRALNLSPNNAVVHGNLACVYYEQGLIDLAIDTYRRAIELQPNFPDAYCNLANALKEKGQVKEAEDCYNTALRLCSNHADSLNNLANIKREQGYIEEATRLYLKALEVFPDFAAAHSNLASVLQQQGKLKEALMHYKEAIRIQPTFADAYSNMGNTLKELQDVSGALQCYTRAIQINPAFADAHSNLASIHKDSGNIPEAIQSYRTALKLKPDFPDAYCNLAHCLQIVCDWTDYDIRMKKLVSIVTEQLEKNRLPSVHPHHSMLYPLTHDCRKAIAARHANLCLEKVHVLHKKPYNFLKKLPTKGRLRIGYLSSDFGNHPTSHLMQSVPGLHDRSKVEIFCYALSPDDGTTFRHKISRESENFVDLSQIPCNGKAADKIFNDGIHILVNMNGYTKGARNEIFALRPAPIQVMWLGYPGTSGASFMDYIITDSVTSPLELAYQYSEKLSYMPHTYFIGDHKQMFPHLKERIIVCDKQQSSVVDNVTVINATDLSPLVENTDVKEIKEVVNAQKPVEITHKVAELPNTTQIVSMIATGQVQTSLNGVVVQNGLATTQTNNKAATGEEVPQNIVITTRRQYMLPDDAVVYCNFNQLYKIDPQTLESWVEILKNVPKSVLWLLRFPAVGEQNIKKTVSDFGISPDRVIFSNVAAKEEHVRRGQLADICLDTPLCNGHTTSMDVLWTGTPVVTLPGETLASRVAASQLATLGCPELIARTREEYQNIAIRLGTKKEYLKALRAKVWKARVESPLFDCSQYAKGLEKLFLRMWEKYENGELPDHISAV,failed
8,MHVNPLISVARSKASALFAALALVLVVTLTLAGCSSDKSGETTAEAKKDPSSIRVVALDWRYEEILHALGITPVGIVEIGKSKEPQTLKGELEGVTSVGQAKQPNLEVIQSLEPDLILASPTRQAAIMDQLKEIAPTHAYGDTSYTEVLDAMDDIATKVGAEDKAKEVRTRIESKIAQAKNKVEPGTRTALIGWSKNTLYTWVKDSFAGSLLTAAGYEYGYDGEKSAIESKTDVAELTGDKLPEMKLDVMYLYNDIEGFRSSPYADVVSNIVDVEQDTWSRSRGPLAAEAMLDQIINS,failed
9,MIAAVAVFALTYVAVAAGRFPYLSLDRPAAALLGAVLMVALGVLTPAEGGAAVNGETLGLLLGMMVLTAYLGEAGFFRWASWRVLRAAGTPRTLLWGVVFTAGALSALLVNDTVCLMMTPLVLRMVDDADLPPLPYLLAVAFGSNAGSAATLTGNPQNMIVGTLSGIGYGRFAAALALPALASLLLVAALLHALFRRALPRGPLAGGRPAAPAVDRALLAKALGALALAVTGFLLGLELAWTALFAAALCMAIAGRAPREALQRVDWPLLVFFAGLFVVVAGIGRAGVTERMYQAVAPLLGADPARQSAVFGLFSIAASQVVSNVPFVILAGEWIPRLADPTLLWLATALCATLAGNLTIVGSVANVIVLELAGSRGRIGFWRFFRVGAVVTAATVAAGLGILLLEHRLGLIG,failed
10,MIALHTLLCADTPDDTPVCFDETTTMTRGMFRAHVAACIAAWSDRCANRYALCIDDPFAFACALFALLASGKAVVIPASSAPAYLASIADAYDSALTDGDMEGIISQAAQPPGAALLRPIAPHAPITLYTSGSSAAPKAIHKTLAQFDAEVRTLEDHWGEWIGPGAILASVPHHHIYGLLFRIFWPLASGRAFGRRTYAEPHALQTALTRRETAAIVSSPAQLARWPSLPGFDTLSPLPAAVFSSGGPLDEAAAATFASAHGTAPTEIYGSTETGGIAWRRRNESDAWQAFANVAVRREADGALSVRSPHLGHPDWHRTDDAAEFDDAGRFRLRGRMDRIVKLDGKRVSLPEIENWLGLHPYVAQSAAVLLPGASRERLGVLSALTSAGVEALRQHGRIGLAKTLRRHLAAYVAPTLIPRKWRFRMSLPVDARGKLPASAVAASFAAGRKGFEMLSHVRDAEGDHYELRVPPELVHFRGHFPGLPILPGVVLVDWIACLAAELADSTRSIRSIDQLKFMAPVPPAALVSVQLTHEPQRCRVRFRARLGTRECASGALVYREAD,failed
11,MIAPSRNLLLCNKGKTELNHSFSMLQAIVESTPYGLLVTNKHGHLLCYNQPYMDMWRIPPEVMVNARHQIIFGHYSSQLRDPQQFLHSTEVIYGTWLPESFDILEFLDGRAFERHTKATTLEGPNMVRVWSFKDITERRQAEAYKAQLAAMVESSDDAIIVKDLNAIITSWNAGAERIFGYQASEITGSSILALIPPERHEEEKGIMSLVKSGNRVDHFETMWWGKGKKPIDVSVTTSAVKDSDGNIVGISQIARDITKRKESQKRIEYLAHYDPLTGLPNRALLADRMKTAIENAKRYSFQLAVLFVDLDHFKLINDSLGHEIGDKLLKIVAERMRSRLRQTDTVSRLGGDEFIILLSRINAASDAACVAEKIIAALSQPYHLEQHELGLGASIGISIYPDSGKDTSSLLRSADEAMYSAKGQGRNRYHGP,failed
12,MIATTSQQSFNLLRTLAVQKASDFADEFYIYMLKDQEASLFLSSQQVHDRLHGSMSKWIADILTNTGDSLADLINHQKKIGQIHARIGIPVDLVERGARRLKWHLYEHIAQVADDKALCFDAMRFASISMDIAIEIMSKTYSQSHDLEHHHHHH,failed
13,MICLPETGFLAEASPRLKQMLAAQAAEIGLARGDTLFKQGDPGDALYAVLSGALEISILSLDGRKLSLDLVGPGAVFGEIALFDPGPRTATVSAAEPARVLRVLSADVMAELRRHPELAIDMVRLAGQRMRWMGGQLNEQVFLPVPTRLARKLLHLAPHHDAGGATVRLSQAELAEYVGATREAVSKTLAHWKRMGVIEVARGTLAIRDPQALRALADPDQI,failed
14,MIDALLNFDFIRYSLISGLLIGFIAPLIGAFIVVRRLSLIADALSHVTLGGISFGMFLLTIIPVFSVINPMWFGILFAVIGALLIEKLRTSFSNYQEIAIPIIMSAGIALSAIFISLADGFNQEIVGLLFGSISAVNISDLTTIIIITIIVLIFIVLFYKELFILSFDEEYSKVIGIPKWIQFLFIVIVAMVISASMRVVGILLVSALITLPIAISMRITKGFKQLIALSVILGELSVILGLIIAFYMNISPGGVIVVLLVLMLILTMIIQKLKIKFKKGVV,failed
15,MIDCLVMAGGQGARMGFREKPLLSVCGQPMLLRVLSALRMACRRIAIVYSRHTPGVKRLCLSGALGAVECIEGPGSYVKDLRLGFSHISTPLLVAPADMPFLNPHHLNLFIDRALADGASIVNLSLRGRGLTGLSVFKHHRGWWRDVETNGCWALDVDTWEDFRRAGELCGGECTGEGLRLELLEHHHHHH,failed
